Read-outs that look alike come from different tables or passages of the source.
T1: cSIRPαV2D1 with histidine tag (cynomolgus monkey (Macaca fascicularis), UniProt Q5TFQ8 30-146 (human entry))
T1 construct: also called cynomolgus monkey SIRPαV2D1; not shown: histidine tag
T1 chain: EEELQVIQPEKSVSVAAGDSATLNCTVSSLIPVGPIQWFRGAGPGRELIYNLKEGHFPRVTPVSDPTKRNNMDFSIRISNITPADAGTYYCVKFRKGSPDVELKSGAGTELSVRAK

T2: cSIRPαV1D1 with histidine tag (cynomolgus monkey (Macaca fascicularis), UniProt Q5TFQ8 30-146 (human entry))
T2 construct: also called cynomolgus monkey SIRPαV1D1; not shown: histidine tag
T2 chain: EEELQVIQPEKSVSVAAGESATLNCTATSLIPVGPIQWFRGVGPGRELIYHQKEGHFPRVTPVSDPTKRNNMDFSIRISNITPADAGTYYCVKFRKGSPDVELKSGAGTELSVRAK


What was measured:
[1] = molecular target: T3, hSIRPαV1D1 with histidine tag (human, UniProt P78324 31-147); assay: SPR (Biacore 3000), IgG captured on anti-human IgG, His-tagged D1 analyte
T3 construct: analyte of the Biacore experiments; also called first immunoglobulin-like domain of human SIRPα variant V1; not shown: histidine tag
Excerpt: (§1) Goat anti-human IgG capture antibody (Jackson Laboratories; 109-005-098) was immobilized on the four flow cells in each sensor chip using standard amine coupling chemistry. About 8000 resonance units (RU) of this antibody was immobilized on each flow cell. Flow cells 2, 3, and 4 were used to analyze captured anti-SIRPα antibodies (about 250 to 300 RU were captured on each of flow cells 2, 3, and 4), while flow cell 1 was used as the reference flow cell. The analytes tested were hSIRPαV1D1, hSIRPαV2D1, cynomolgus monkey SIRPαV1D1 (cSIRPαV1D1), cSIRPαV2D1, hSIRPβ1D1, and hSIRPγD1, each of which also included a histidine tag. The sequences of cSIRPαV1D1 and cSIRPαV2D2 are provided in SEQ ID NOs: 143 and 142, respectively. To avoid confusion, the differences between the amino acid sequences of cSIRPαV1D1 and cSIRPαV2D1 are not the same as the differences between the amino acid sequences of hSIRPαV1D1 and hSIRPαV2D1. […] The amino acid sequence of hSIRPβ1D1 can be found in amino acids 30-148 of SEQ ID NO: 144, and the amino acid sequence of hSIRPγD1 can be found in amino acids 31-149 of SEQ ID NO: 141.
(§2) Generally, concentrations from about 0.1×KD to about 10×KD are appropriate for kinetic analysis. From one to six different concentrations were evaluated for each antibody:analyte interaction, depending on the comparisons to be made in an individual experiment. All analyte dilutions were prepared in HPS-EP buffer. Multiple blank (running buffer) injections were run and used to assess and subtract system artifacts. The association phase and dissociation phase for all analyte concentrations were monitored for 180 seconds and 300 seconds, respectively, at a flow rate of 50 μL/min. Between antibody samples, the surfaces of the flow cells were regenerated with 10 mM glycine, pH 1.5 using two injections, each lasting 12 seconds at a flow rate of 50 μL/min.
(§3) The data were analyzed using BIAevaluation software (Biacore, General Electric (GE)). The data was fit using the 1:1 Langmuir model.

[2] = molecular target: T1, cSIRPαV2D1 with histidine tag; assay: as above
Excerpt: as §1, §2, §3

[3] = molecular target: T4, hSIRPαV2D1 with histidine tag (human); assay: as above
T4 construct: analyte of the Biacore experiments; also called first immunoglobulin-like domain of human SIRPα variant V2; not shown: histidine tag
Excerpt: as §1, §2, §3

[4] = molecular target: T5, hSIRPγD1 with histidine tag (human, UniProt Q9P1W8 31-149); assay: as above
T5 construct: also called first immunoglobulin-like domain of human SIRP Gamma; not shown: histidine tag
Excerpt: as §1, §2, §3

[5] = molecular target: T2, cSIRPαV1D1 with histidine tag; assay: as above
Excerpt: as §1, §2, §3

[6] = molecular target: T6, hSIRPβ1D1 with histidine tag (human, UniProt O00241 30-148); assay: as above
T6 construct: analyte of the Biacore experiments; also called hSIRPβD1; not shown: histidine tag
Excerpt: as §1, §2, §3

[7] = molecular target: T7, hSIRPαV1 expressed on the cell surface (human, UniProt P78324 31-504); assay: FACS competition on EXPI293 cells stably expressing hSIRPαV1: biotinylated hCD47:Fc (2.5 µg/ml) mixed with serial dilutions of the antibody, bound hCD47:Fc detected with streptavidin-PE (MFI); blocked ligand: hCD47:Fc
T7 construct: also called human SIRPα variant V1
Method: (§4) The x axes show the antibody concentration in μg/ml. The y axes show mean fluorescence intensity (MFI) at about 572 nm (due to binding of biotinylated CD47:Fc, detected by a streptavidin-phycoerythrin conjugate).
(§5) Some of the anti-SIRPα antibodies described above were tested in vitro for their ability to inhibit binding of CD47 to hSIRPαV1 or hSIRPαV2 expressed on the surface of EXPI293™ cells stably transfected with DNA encoding these proteins. Briefly, stable transfectants expressing hSIRPαV1 or hSIRPαV2 were seeded into 96-well microtiter plates. […] After 30 minutes incubation, cells were washed, streptavidin-phycoerythrin (streptavidin-PE) was added, and cells were subjected to FACS to detect bound hCD47:Fc. Results were reported as a mean fluorescence intensity (MFI) using FlowJo software (FLOWJO, L.L.C., Ashland, Oreg., USA). FIGS. 4 and 5 show the MFI detected on the y axes of both panels and the antibody concentration on the x axes of both panels.

[8] = molecular target: T8, hSIRPαV2 expressed on the cell surface (human, UniProt P78324 31-504); assay: FACS competition on EXPI293 cells stably expressing hSIRPαV2: biotinylated hCD47:Fc (2.5 µg/ml) mixed with serial dilutions of the antibody, bound hCD47:Fc detected with streptavidin-PE (MFI); blocked ligand: hCD47:Fc
T8 construct: whole, on cells; also called human SIRPα variant V2
Method: as §4, §5

[9] = molecular target: T8, hSIRPαV2 expressed on the cell surface; assay: flow cytometry on primary human monocytes (FSC/SSC gate) in PBMCs expressing only SIRPαV2, antibody detected with APC-(Fab)2 goat anti-human IgG Fc (MFI at about 670 nm)
Method: FIG. 6: Binding of anti-SIRPα antibodies to T cells and monocytes. Methods are described in Example 4. […] The x axes show the antibody concentration in μg/ml. The y axes show mean fluorescence intensity (MFI) at about 670 nm (due to binding of allophycocyanin (APC)-conjugated (Fab)₂ goat anti-human IgG Fc-specific secondary antibody).
Some of the anti-SIRPα antibodies were tested in vitro for binding to primary T cells and monocytes in peripheral blood mononuclear cells (PBMCs). Briefly, PBMCs that expressed only SIRPα V2 were seeded in 96-well microtiter plates. Serial dilutions of anti-SIRPα antibodies were incubated with the cells on ice for 30 minutes. […] The cells were then subjected to FACs. T cells were gated based on their anti-CD4 or anti-CD8 binding (detected by FITC fluorescence), since T cells commonly express either CD4 or CD8. Monocytes were gated based on their forward scatter/side scatter (FSC/SSC) profile, since a characteristic FSC/SSC profile can identify monocytes. See, e.g., Marimuthu et al., Characterization of human monocytes subsets by whole blood flow cytometry analysis, J. Vis. Exp. (140), e57941, doi:10.3791/57941 (2018). The binding of anti-SIRPα antibodies to each population was reported as a mean fluorescence intensity (MFI) of the APC channel (670 nm).

[10] = molecular target: T7, hSIRPαV1 expressed on the cell surface; assay: FACS competition on EXPI293 cells stably expressing hSIRPαV1: biotinylated hCD47:Fc (2.5 µg/ml) mixed with serial dilutions of the antibody, bound hCD47:Fc detected with streptavidin-PE (MFI); blocked ligand: hCD47:Fc; remark: listed apart in the source
Method: (§6) The x axes show the antibody concentration in μg/ml. The y axes show mean fluorescence intensity (MFI) at about 572 nm.
as §5

[11] = molecular target: T8, hSIRPαV2 expressed on the cell surface; assay: FACS competition: inhibition of biotinylated hCD47:Fc (2.5 µg/ml) binding to EXPI293 cells expressing hSIRPαV2, FIG. 5A
Method: as §6, §5

Binder	Kd [1] [nM]	Kd [2] [nM]	Kd [3] [nM]	Kd [4] [nM]	Kd [5] [nM]	Kd [6] [nM]	IC50 (read off the curve) [7] [µg/mL]	IC50 (read off the curve) [8] [µg/mL]	EC50 (read off the curve) [9] [µg/mL]	IC50 (read off the curve) [10] [µg/mL]	IC50 [11] [µg/mL]
Ab1_G4 (antibody, human IgG4 S228P, kappa, V domains shown, human IgG4 format, kappa light chain, made in EXPICHO cells) VH: EVQLVESGGGLVKPGGSLRLSCAASGFTFSSYVMSWVRQTPGKGLEWVATISSGGTYTYYPSSVKGRFTLSRDNAKNSLYLQMNSLRAEDTAVYYCASSLTGSSFDYWGQGTTVTVSS VL: DIVLTQSPASLAVSLGERATISCRASESVDLYGTSFMHWYQQKPGQPPKLLIYRASNLESGVPDRFSGSGSRTDFTLTINPLQAEDVATYYCHQSSDELPWTFGGGTKVEIKR	67.9	~399	3.12	244	36.4	1.39	~0.6	~0.2	–	–	–
Ab11_G4 (antibody, human IgG4 S228P, kappa, V domains shown, human IgG4 format) VH: EVQLVESGGGLVKPGGSLRLSCAASGFTFSSYVMSWVRQTPGKGLEWVATISSGGTYTYYPDSVKGRFTLSRDNAKNSLYLQMNSLRAEDTAVYYCASQLTGSEFDYWGQGTTVTVSS VL: DIVITQSPASLAVSLGERATISCRASESVDSYGNSFMHWYQQKPGQPPKLLIYRASNLESGVPDRFSGSGSRTDFTLTINPLQAEDVATYYCHQSGDLPWTFGGGTKVEIKR	231	~519	3.09	~7310	127	11.1	–	~0.3	~0.06	–	–
Ab24_G2 (antibody, human IgG2, kappa, like Ab24_G4 but with an IgG2 HC; also called Ab24_IgG2) heavy: EVQLVESGGGLVKPGGSLRLSCAASGFTFSSYVMSWVRQTPGKGLEWVATISSGGTYTYYPDSVKGRFTLSRDNAKNSLYLQMNSLRAEDTAVYYCASQLTGSEFDYWGQGTTVTVSSASTKGPSVFPLAPCSRSTSESTAALGCLVKDYFPEPVTVSWNSGALTSGVHTFPAVLQSSGLYSLSSVVTVPSSNFGTQTYTCNVDHKPSNTKVDKTVERKCCVECPPCPAPPVAGPSVFLFPPKPKDTLMISRTPEVTCVVVDVSHEDPEVQFNWYVDGVEVHNAKTKPREEQFNSTFRVVSVLTVVHQDWLNGKEYKCKVSNKGLPAPIEKTISKTKGQPREPQVYTLPPSREEMTKNQVSLTCLVKGFYPSDIAVEWESNGQPENNYKTTPPMLDSDGSFFLYSKLTVDKSRWQQGNVFSCSVMHEALHNHYTQKSLSLSPGK light: DIVLTQSPASLAVSLGERATISCRASESVDLYGTSFMHWYQQKPGQPPKLLIYRASNLESGVPDRFSGSGSRTDFTLTINPLQAEDVATYYCHQSSDELPWTFGGGTKVEIKRTVAAPSVFIFPPSDEQLKSGTASVVCLLNNFYPREAKVQWKVDNALQSGNSQESVTEQDSKDSTYSLSSTLTLSKADYEKHKVYACEVTHQGLSSPVTKSFNRGEC	–	–	–	–	–	–	–	–	–	~0.4	0.22
Ab24_4422 PA (antibody, human IgG4 S228P, kappa) heavy: EVQLVESGGGLVKPGGSLRLSCAASGFTFSSYVMSWVRQTPGKGLEWVATISSGGTYTYYPDSVKGRFTLSRDNAKNSLYLQMNSLRAEDTAVYYCASQLTGSEFDYWGQGTTVTVSSASTKGPSVFPLAPCSRSTSESTAALGCLVKDYFPEPVTVSWNSGALTSGVHTFPAVLQSSGLYSLSSVVTVPSSSLGTKTYTCNVDHKPSNTKVDKRVESKYGPPCPPCPAPPVAGPSVFLFPPKPKDTLMISRTPEVTCVVVDVSHEDPEVQFNWYVDGVEVHNAKTKPREEQFNSTFRVVSVLTVVHQDWLNGKEYKCKVSNKGLAAPIEKTISKTKGQPREPQVYTLPPSREEMTKNQVSLTCLVKGFYPSDIAVEWESNGQPENNYKTTPPMLDSDGSFFLYSKLTVDKSRWQQGNVFSCSVMHEALHNHYTQKSLSLSPGK light: DIVLTQSPASLAVSLGERATISCRASESVDLYGTSFMHWYQQKPGQPPKLLIYRASNLESGVPDRFSGSGSRTDFTLTINPLQAEDVATYYCHQSSDELPWTFGGGTKVEIKRTVAAPSVFIFPPSDEQLKSGTASVVCLLNNFYPREAKVQWKVDNALQSGNSQESVTEQDSKDSTYSLSSTLTLSKADYEKHKVYACEVTHQGLSSPVTKSFNRGEC	–	–	–	–	–	–	–	–	–	~0.3	0.17

From patent US20220235144A1 (QILU PUGET SOUND BIOTHERAPEUTICS, published 2022)
